In patent US20190055293:

Tested on: insulin

Row | Substance | insulin disulfide reductase activity (turbidity, optical density at A595 nm)
1 | Thioredoxin protein | The addition of RdCVF (LF) or Trx1 resulted in an increase in optical density at A595 nm
2 | purified RdCVF(LF) protein (human rod-derived cone viability factor, long form) | The addition of RdCVF (LF) or Trx1 resulted in an increase in optical density at A595 nm
